Data as given in US20040265906A1.
Values belong to the substance of their own block, whether it stands above or below them.

Key:
Assay in all cases: cell-based or functional assay
[1] = molecular target: H3 peptide segment (first 30 amino acids of H3) of the phosphorylation indicator, phosphorylated by Msk-1
[2] = molecular target: H4 peptide of the H4 acetylation indicator, acetylated by CBP
[3] = molecular target: H3 peptide (first 30 amino acids of H3) of the H3 methylation indicator, methylated by G9a

YFP/CFP emission ratio increase (FRET) on in vitro phosphorylation by Msk-1 [1]: 25%
Substance: 14-3-3 domain of the histone 3 phosphorylation indicator

YFP/CFP emission ratio increase (FRET) on in vitro acetylation by CBP + acetyl-CoA [2]: 11%
Substance: bromodomain of the Drosophila transcription factor TAF250 in the H4 acetylation reporter

YFP/CFP emission ratio increase (FRET) on in vitro methylation by G9a + SAM [3]: 20%
Substance: chromodomain of HP1 in the H3 methylation indicator
